Laboratory results: paper PMC2902579

B1: HCV IRES domains III-IV (131-388) (structured_RNA)
RNA: GGGAGAGCCAUAGUGGUCUGCGGAACCGGUGAGUACACCGGAAUUGCCAGGACGACCGGGUCCUUUCUUGGAUCAACCCGCUCAAUGCCUGGAGAUUUGGGCGUGCCCCCGCGAGACUGCUAGCCGAGUAGUGUUGGGUCGCGAAAGGCCUUGUGGUACUGCCUGAUAGGGUGCUUGCGAGUGCCCCGGGAGGUCUCGUAGACCGUGCACCAUGAGCACGAAUCCUAAACCUCAAAGAAAAACCAAAGGGCGCGCCGC
B2: HCV IRES domain II (39-119) (structured_RNA)
RNA: GGACUCCCCUGUGAGGAACUACUGUCUUCACGCAGAAAGCGUCUAGCCAUGGCGUUAGUAUGAGUGUCGUGCAGCCUCCAGGA

Tests used:
[1] = biological target: T1, PKR dsRBD (p20) (UniProt P19525 1-184); test: EMSA
T1 sequence (P19525 1-184): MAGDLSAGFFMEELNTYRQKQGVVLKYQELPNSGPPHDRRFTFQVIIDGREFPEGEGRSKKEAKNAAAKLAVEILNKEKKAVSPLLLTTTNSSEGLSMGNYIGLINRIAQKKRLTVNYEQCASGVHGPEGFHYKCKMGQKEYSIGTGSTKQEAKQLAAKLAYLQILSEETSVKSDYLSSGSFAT

[2] = biological target: T1, PKR dsRBD (p20); test: nuclease footprinting

| Binder | binding result [1] | binding result [2] |
| --- | --- | --- |
| B1 | binds | – |
| B2 | – | binds |
